According to the RNAGym collection of RNA variant scans (doi:10.7554/elife.90254):

B1: LINE1-mini (parent)
chain: GGCAGAGCUCAACACAGCGUGGCAAAGUGGCUGUGGCUAGACUGCC

Variants of: B1
Experiment: self-cleavage, relative activity (ratio to wild type); higher = more cleavage; in vitro, sequencing; the parent is a self-cleaving ribozyme

| Variant | self-cleavage |
| --- | --- |
| GGAAGAGCUCAACACAGCGUGGCAAAGGGGCUGUGGCUAGACUGCC [C3A U28G] | 0.42 |
| GGGAGAGCUCAACACAGCGUGGCAAAGUGGCUGUGGCUAGAAUGCC [C3G C42A] | 0.28 |
| GGGAGAGCUCAACACAGCGUGGCAAAGUGGCUGUGGCUAGAUUGCC [C3G C42U] | 0.31 |
| GGGAGAGCUCAACACAGCGUGGCAAAGUGGCUGUGGCUAGAGUGCC [C3G C42G] | 0.05 |
| GGGACAGCUCAACACAGCGUGGCAAAGUGGCUGUGGCUAGACUGCC [C3G G5C] | 0.58 |
| GGGAAAGCUCAACACAGCGUGGCAAAGUGGCUGUGGCUAGACUGCC [C3G G5A] | 0.68 |
| GGGAUAGCUCAACACAGCGUGGCAAAGUGGCUGUGGCUAGACUGCC [C3G G5U] | 0.11 |
| GGGAGAGCUCAACACAGCGUGGCAAAGUGGCUGUGGCUAGACUGCA [C3G C46A] | 0.36 |
| GGGAGAGCUCAACACAGCGUGGCAAAGUGGCUGUGGCUAGACUGCG [C3G C46G] | 0.35 |
| GGGAGAGCUCAACACAGCGUGGCAAAGUGGCUGUGGCUAGACUGCU [C3G C46U] | 0.17 |
| GGGAGAGCUCAACACAGCGUGGCAACGUGGCUGUGGCUAGACUGCC [C3G A26C] | 0.37 |
| GGGAGAGCUCAACACAGCGUGGCAAUGUGGCUGUGGCUAGACUGCC [C3G A26U] | 0.56 |
| GGGAGAGCUCAACACAGCGUGGCAAGGUGGCUGUGGCUAGACUGCC [C3G A26G] | 0.36 |
| GGGAGAGCUCAACACAGCGUGGCAAAGUGGCUGUGGCUAGACUGCC [C3G] | 0.48 |
| GGGAGAGCUCAACAAAGCGUGGCAAAGUGGCUGUGGCUAGACUGCC [C3G C15A] | 0.18 |
| GGGAGAGCUCAACAUAGCGUGGCAAAGUGGCUGUGGCUAGACUGCC [C3G C15U] | 0.25 |
| GGGAGAGCUCAACAGAGCGUGGCAAAGUGGCUGUGGCUAGACUGCC [C3G C15G] | 0.04 |
| GGAAGAGCUCAACACAGCGUGGCAAAGUGGCUGUGUCUAGACUGCC [C3A G36U] | 0.38 |
| GGAAGAGCUCAACACAGCGUGGCAAAGUGGCUGUGCCUAGACUGCC [C3A G36C] | 1.01 |

| Variant | self-cleavage |
| --- | --- |
| GGAAGAGCUCAACACAGCGUGGCAAAGUGGCUGUGACUAGACUGCC [C3A G36A] | 1.1 |
| GGAAGAGCUCAACACAGCGUGGCAAAGUGGCUGAGGCUAGACUGCC [C3A U34A] | 0.11 |
| GGAAGAGCUCAACACAGCGUGGCAAAGUGGCUGCGGCUAGACUGCC [C3A U34C] | 0.14 |
| GGAAGAGCUCAACACAGCGUGGCAAAGUGGCUGGGGCUAGACUGCC [C3A U34G] | 0.12 |
| GGGCGAGCUCAACACAGCGUGGCAAAGUGGCUGUGGCUAGACUGCC [C3G A4C] | 0.11 |
| GGGUGAGCUCAACACAGCGUGGCAAAGUGGCUGUGGCUAGACUGCC [C3G A4U] | 0.36 |
| GGGGGAGCUCAACACAGCGUGGCAAAGUGGCUGUGGCUAGACUGCC [C3G A4G] | 0.2 |
| GGAAGAGCUCAACACAGCGUGGCAAAGUGGCGGUGGCUAGACUGCC [C3A U32G] | 0.15 |
| GGAAGAGCUCAACACAGCGUGGCAAAGUGGCCGUGGCUAGACUGCC [C3A U32C] | 0.31 |
| GGAAGAGCUCAACACAGCGUGGCAAAGUGGCAGUGGCUAGACUGCC [C3A U32A] | 0.12 |
| GGGAGAGGUCAACACAGCGUGGCAAAGUGGCUGUGGCUAGACUGCC [C3G C8G] | 0.08 |
| GGGAGAGAUCAACACAGCGUGGCAAAGUGGCUGUGGCUAGACUGCC [C3G C8A] | 0.52 |
| GGGAGAGUUCAACACAGCGUGGCAAAGUGGCUGUGGCUAGACUGCC [C3G C8U] | 0.39 |
| GGGAGAGCUCAAGACAGCGUGGCAAAGUGGCUGUGGCUAGACUGCC [C3G C13G] | 0.55 |
| GGGAGAGCUCAAUACAGCGUGGCAAAGUGGCUGUGGCUAGACUGCC [C3G C13U] | 0.37 |
| GGGAGAGCUCAAAACAGCGUGGCAAAGUGGCUGUGGCUAGACUGCC [C3G C13A] | 0.48 |
| GGGAGAGCUCAACACAGCGUGGCAAAGUGGCUGUGGCUUGACUGCC [C3G A39U] | 0.27 |
| GGGAGAGCUCAACACAGCGUGGCAAAGUGGCUGUGGCUGGACUGCC [C3G A39G] | 0.56 |
| GGGAGAGCUCAACACAGCGUGGCAAAGUGGCUGUGGCUCGACUGCC [C3G A39C] | 0.14 |

| Variant | self-cleavage |
| --- | --- |
| GGGAGAGCUCAACACAGCGUGGCAAAGUGGCUGUGGCUAGUCUGCC [C3G A41U] | 0.29 |
| GGGAGAGCUCAACACAGCGUGGCAAAGUGGCUGUGGCUAGCCUGCC [C3G A41C] | 0.1 |
| GGGAGAGCUCAACACAGCGUGGCAAAGUGGCUGUGGCUAGGCUGCC [C3G A41G] | 0.09 |
| GGGAGAGCUCAACACAGCGUGGCAGAGUGGCUGUGGCUAGACUGCC [C3G A25G] | 0.14 |
| GGGAGAGCUCAACACAGCGUGGCACAGUGGCUGUGGCUAGACUGCC [C3G A25C] | 0.18 |
| GGGAGAGCUCAACACAGCGUGGCAUAGUGGCUGUGGCUAGACUGCC [C3G A25U] | 0.47 |
| GGGAGAGCUCAACACAGCGUGGCAAAGUGGGUGUGGCUAGACUGCC [C3G C31G] | 0.07 |
| GGGAGAGCUCAACACAGCGUGGCAAAGUGGAUGUGGCUAGACUGCC [C3G C31A] | 0.15 |
| GGGAGAGCUCAACACAGCGUGGCAAAGUGGUUGUGGCUAGACUGCC [C3G C31U] | 0.07 |
| GGAAGAGCUCAACACAGCGUGGCAAAGUGACUGUGGCUAGACUGCC [C3A G30A] | 1.1 |
| GGAAGAGCUCAACACAGCGUGGCAAAGUGUCUGUGGCUAGACUGCC [C3A G30U] | 0.61 |
| GGAAGAGCUCAACACAGCGUGGCAAAGUGCCUGUGGCUAGACUGCC [C3A G30C] | 0.58 |
| GGGAGAGCUCAGCACAGCGUGGCAAAGUGGCUGUGGCUAGACUGCC [C3G A12G] | 0.09 |
| GGGAGAGCUCACCACAGCGUGGCAAAGUGGCUGUGGCUAGACUGCC [C3G A12C] | 0.19 |
| GGGAGAGCUCAUCACAGCGUGGCAAAGUGGCUGUGGCUAGACUGCC [C3G A12U] | 0.43 |
| GGAAGAGCUCAACACAGCGUGGCAAAGUGGCUGUGGCUACACUGCC [C3A G40C] | 0.19 |
| GGAAGAGCUCAACACAGCGUGGCAAAGUGGCUGUGGCUAUACUGCC [C3A G40U] | 0.21 |
| GGAAGAGCUCAACACAGCGUGGCAAAGUGGCUGUGGCUAAACUGCC [C3A G40A] | 0.16 |
